Test results published in the supplement of paper PMC10126150.
± gives the standard deviation of the averaged measurements.

Test system: ATP
Assay: switch fluorescence ratio, 500 uM ATP over buffer (Cy3 cluster intensity, sum of 5 cycles each) (fold (ratio)); higher = stronger signal-on switching upon ATP binding; sequences stand for … in TCGTCGGCAGCGTCAGATGTGTATAAGAGACAGTTTTTTTTTTTTTTTTTTTTTTTTT…TC
Settings: aptamer strand: ATP DNA aptamer (quencher-CACCTGGGGGAGTATTGCGGAGGAAGG + anchor), 100 nM annealed; ATP concentration: 500 uM
Outline: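 Between each of five buffer/ATP cycles, the flow-cell was stripped with NaOH and re-annealed. Each cycle imaged Cy3-labelled switching-strand clusters, annealed to 100 nM quencher-labelled ATP aptamer on a modified Illumina MiSeq flow-cell, first in selection buffer and then after 15 min with 500 uM ATP at 22 °C. The fluorescence ratio is summed target-cycle over summed buffer-cycle Cy3 intensity per cluster, averaged per switch-domain sequence, with clusters outside 100-1000 RFU excluded.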
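Further: ATP exposure 15 min at 22 °C before imaging.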

| Sequence | switch fluorescence ratio |
| --- | --- |
| ATGTATATGC | 1.08 ± 0.069 |
| ATGTATCAGG | 1.03 ± 0.022 |
| ATGTATTTTG | 0.967 ± 0.049 |
| ATGTCAAGGC | 1.05 ± 0.052 |
| ATGTCACTGT | 1.01 ± 0.043 |
| ATGTCATAAA | 1.0269 ± 0.0006 |
| ATGTCATGGG | 0.998 ± 0.032 |
| ATGTCCAGGG | 1.21 ± 0.04 |
| ATGTCCGAAT | 1.02 ± 0.012 |
| ATGTCTTGAT | 0.963 ± 0.014 |
| ATGTGAGGGA | 0.991 ± 0.02 |
| ATGTGATGAA | 0.973 ± 0.019 |
| ATGTGATGGC | 0.981 ± 0.019 |
| ATGTGCCGTC | 1.04 ± 0.048 |
| ATGTGCTTGG | 1.02 ± 0.027 |
| ATGTGGAGTC | 1.05 ± 0.063 |
| ATGTGGATGC | 0.98 ± 0.045 |
| ATGTGGATGG | 0.976 ± 0.023 |
| ATGTGGCCGG | 0.997 ± 0.024 |
| ATGTGGCCTA | 0.986 ± 0.034 |
| ATGTGGCTTA | 0.989 ± 0.022 |
| ATGTGGGCTG | 0.979 ± 0.045 |
| ATGTGGGTAC | 1.02 ± 0.026 |
| ATGTGGGTAT | 1.028 ± 0.0068 |
| ATGTGGGTTT | 0.974 ± 0.021 |
| ATGTGGTCGC | 0.9972 ± 0.0016 |

| Sequence | switch fluorescence ratio |
| --- | --- |
| ATGTGTAAAC | 1.01 ± 0.038 |
| ATGTGTAACC | 1 ± 0.039 |
| ATGTGTAGGC | 1.02 ± 0.026 |
| ATGTGTAGGG | 0.9711 ± 0.0014 |
| ATGTGTATTG | 0.985 ± 0.025 |
| ATGTGTGGAG | 1.013 ± 0.0048 |
| ATGTGTGTGG | 1.03 ± 0.017 |
| ATGTGTTACC | 1.01 ± 0.021 |
| ATGTTAAATC | 0.96 ± 0.029 |
| ATGTTAACTA | 0.985 ± 0.065 |
| ATGTTAGTGG | 1.01 ± 0.066 |
| ATGTTATTGG | 0.967 ± 0.033 |
| ATGTTGATAT | 1.01 ± 0.045 |
| ATGTTGGGAA | 0.978 ± 0.029 |
| ATGTTGGGGG | 0.989 ± 0.018 |
| ATGTTGGGGT | 1 ± 0.029 |
| ATGTTGTGGT | 0.987 ± 0.031 |
| ATGTTTATCT | 0.979 ± 0.044 |
| ATGTTTGCTT | 0.974 ± 0.025 |
| ATGTTTGTTT | 0.993 ± 0.05 |
| ATGTTTTAGG | 1.01 ± 0.047 |
| ATGTTTTCCT | 1.0718 ± 0.00067 |
| ATGTTTTTAG | 0.991 ± 0.018 |
| ATTAAAAATC | 0.968 ± 0.036 |
| ATTAAACGGG | 0.997 ± 0.012 |
| ATTAAATAAC | 1.02 ± 0.02 |

| Sequence | switch fluorescence ratio |
| --- | --- |
| ATTAAATCAG | 1.013 ± 0.0058 |
| ATTAAATGAT | 0.9574 ± 0.002 |
| ATTAACCAGG | 1.27 ± 0.065 |
| ATTAACTTTG | 1.01 ± 0.05 |
| ATTAAGAGTA | 0.961 ± 0.012 |
| ATTAAGGATT | 1.01 ± 0.016 |
| ATTAAGGCCC | 0.988 ± 0.044 |
| ATTAAGGCGC | 0.998 ± 0.029 |
| ATTAAGGGCA | 0.97 ± 0.011 |
| ATTAAGGTAA | 1.01 ± 0.033 |
| ATTAAGTTGG | 0.982 ± 0.022 |
| ATTAAGTTTC | 0.9675 ± 0.0012 |
| ATTAAGTTTT | 1 ± 0.028 |
| ATTAATAGTT | 0.997 ± 0.053 |
| ATTAATTTTG | 0.992 ± 0.023 |
| ATTACGGAGA | 1.05 ± 0.069 |
| ATTACGGGAT | 1.01 ± 0.062 |
| ATTACGTAGC | 1.428 ± 0.0063 |
| ATTACTGAGT | 1.03 ± 0.015 |
| ATTACTGTGC | 0.94 ± 0.02 |
| ATTACTTAAG | 1 ± 0.046 |
| ATTAGAAGGG | 0.985 ± 0.061 |
| ATTAGAATGG | 1 ± 0.01 |
| ATTAGACGGA | 1.058 ± 0.0045 |
| ATTAGATATA | 1 ± 0.035 |
| ATTAGATTTT | 1.02 ± 0.12 |

| Sequence | switch fluorescence ratio |
| --- | --- |
| ATTAGGAGAT | 0.9964 ± 0.0063 |
| ATTAGGATTG | 1 ± 0.053 |
| ATTAGGGGAG | 0.972 ± 0.0028 |
| ATTAGGGTAT | 1.0078 ± 0.00026 |
| ATTAGGTATG | 0.969 ± 0.016 |
| ATTAGGTTGA | 0.975 ± 0.0047 |
| ATTAGTACTG | 1.02 ± 0.02 |
| ATTAGTCAGG | 1.03 ± 0.019 |
| ATTAGTCGGT | 0.97109 ± 0.00068 |
| ATTAGTTTTG | 0.99 ± 0.029 |
| ATTATACGGC | 1.056 ± 0.0042 |
| ATTATAGGGG | 0.986 ± 0.0017 |
| ATTATAGTAA | 0.9886 ± 0.0022 |
| ATTATATGTG | 1.02 ± 0.027 |
| ATTATCAGTT | 0.987 ± 0.021 |
| ATTATCGCGC | 0.983 ± 0.031 |
| ATTATCTACT | 1.04 ± 0.026 |
| ATTATGACGG | 0.982 ± 0.047 |
| ATTATGAGTA | 0.9727 ± 0.0091 |
| ATTATGATAT | 1.01 ± 0.015 |
| ATTATGGAAG | 0.994 ± 0.018 |
| ATTATGGCAC | 1.01 ± 0.0041 |
| ATTATGGCGT | 0.999 ± 0.013 |
| ATTATGGGAG | 0.989 ± 0.011 |
| ATTATGGGTA | 1.02 ± 0.036 |
| ATTATGGTCG | 0.999 ± 0.084 |

| Sequence | switch fluorescence ratio |
| --- | --- |
| ATTATGTACT | 1.05 ± 0.022 |
| ATTATGTCTG | 0.966 ± 0.071 |
| ATTATTAATT | 0.973 ± 0.022 |
| ATTATTACGT | 0.99 ± 0.038 |
| ATTATTGACT | 1.04 ± 0.014 |
| ATTATTGGCG | 1.01 ± 0.042 |
| ATTATTGGGA | 1 ± 0.046 |
| ATTATTGGGG | 0.9642 ± 0.0086 |
| ATTCAAAAAA | 0.999 ± 0.039 |
| ATTCAAATGT | 1 ± 0.03 |
| ATTCAGGCTT | 1.029 ± 0.0019 |
| ATTCAGGTTC | 0.996 ± 0.032 |
| ATTCAGGTTG | 1.02 ± 0.016 |
| ATTCATATGT | 0.999 ± 0.018 |
| ATTCATGTGT | 1.02 ± 0.026 |
| ATTCATTATT | 0.9927 ± 0.0049 |
| ATTCATTGC | 1.038 ± 0.0048 |
| ATTCATTGGG | 0.9872 ± 0.0075 |
| ATTCCAATTT | 1.08 ± 0.035 |
| ATTCCCAATT | 1.04 ± 0.025 |
| ATTCGCCACT | 1.011 ± 0.0012 |
| ATTCGCGAGG | 0.982 ± 0.027 |
| ATTCGGGGCT | 1 ± 0.038 |
| ATTCGGGGGG | 0.99 ± 0.022 |
| ATTCGGTCTG | 0.9825 ± 0.006 |
| ATTCGGTTGT | 1.001 ± 0.0059 |

| Sequence | switch fluorescence ratio |
| --- | --- |
| ATTCGTGCGC | 1.071 ± 0.0046 |
| ATTCGTTATG | 1 ± 0.013 |
| ATTCGTTGG | 1 ± 0.038 |
| ATTCTACGGC | 1.06 ± 0.073 |
| ATTCTAGTAT | 0.962 ± 0.026 |
| ATTCTAGTCG | 1.02 ± 0.086 |
| ATTCTCCTTG | 1 ± 0.017 |
| ATTCTCTGGT | 1.01 ± 0.076 |
| ATTCTGCTCC | 0.991 ± 0.041 |
| ATTCTTTGGT | 0.979 ± 0.054 |
| ATTCTTTGTT | 0.962 ± 0.045 |
| ATTCTTTTGG | 0.9726 ± 0.0041 |
| ATTGAAGATT | 0.989 ± 0.037 |
| ATTGACGAGG | 1.001 ± 0.0026 |
| ATTGACGGGT | 0.9762 ± 0.0085 |
| ATTGAGAGGG | 1.07 ± 0.075 |
| ATTGAGCGGG | 1 ± 0.034 |
| ATTGAGGAAT | 0.965 ± 0.064 |
| ATTGAGGGGA | 0.994 ± 0.032 |
| ATTGAGGGTC | 0.986 ± 0.018 |
| ATTGAGTTAG | 0.99 ± 0.011 |
| ATTGAGTTAT | 0.967 ± 0.019 |
| ATTGATAGCA | 1.03 ± 0.028 |
